{"source": "patent US20260217779A1", "experiment_in_all_cases": "cell-based or functional assay", "key": {"[1]": {"molecular_target": "hCXCL10R75A.0017-G1T4k.one//VHn-G1T4h.one.H435R (human) [IgG part: P01857]", "sequence (P01857 other isoform, or with tags, fused parts or gaps H435R H435R, chain 1 of 2)": "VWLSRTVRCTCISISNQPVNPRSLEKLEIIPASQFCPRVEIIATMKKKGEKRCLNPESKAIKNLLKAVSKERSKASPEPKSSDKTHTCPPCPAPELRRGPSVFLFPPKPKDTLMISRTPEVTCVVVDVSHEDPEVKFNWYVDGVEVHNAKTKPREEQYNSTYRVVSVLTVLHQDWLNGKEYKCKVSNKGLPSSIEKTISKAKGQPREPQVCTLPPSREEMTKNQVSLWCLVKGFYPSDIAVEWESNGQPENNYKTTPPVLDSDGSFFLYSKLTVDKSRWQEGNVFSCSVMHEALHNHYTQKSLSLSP", "sequence (P01857 other isoform, or with tags, fused parts or gaps H435R H435R, chain 2 of 2)": "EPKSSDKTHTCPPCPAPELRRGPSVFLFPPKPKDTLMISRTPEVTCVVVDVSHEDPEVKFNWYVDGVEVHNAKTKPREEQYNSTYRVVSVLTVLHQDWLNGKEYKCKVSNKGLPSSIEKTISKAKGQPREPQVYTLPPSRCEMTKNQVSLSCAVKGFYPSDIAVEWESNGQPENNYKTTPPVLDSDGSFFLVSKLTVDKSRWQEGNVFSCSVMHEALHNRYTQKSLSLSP"}, "[2]": {"molecular_target": "hCXCL10R75A.0054-G1T4k.one//VHn-G1T4h.one.H435R (human) [IgG part: P01857]"}, "[3]": {"molecular_target": "hCXCL10R75A.0053-G1T4k.one//VHn-G1T4h.one.H435R (human) [IgG part: P01857]"}, "[4]": {"molecular_target": "hCXCL10R75A.0027-G1T4k.one//VHn-G1T4h.one.H435R (human) [IgG part: P01857]"}, "[5]": {"molecular_target": "hCXCL10R75A.0005-G1T4k.one//VHn-G1T4h.one.H435R (human) [IgG part: P01857]"}, "[6]": {"molecular_target": "hCXCL10R75A-G1T4k.one//VHn-G1T4h.one.H435R (human) [IgG part: P01857]", "sequence (P01857 other isoform, or with tags, fused parts or gaps H435R H435R, chain 1 of 2)": "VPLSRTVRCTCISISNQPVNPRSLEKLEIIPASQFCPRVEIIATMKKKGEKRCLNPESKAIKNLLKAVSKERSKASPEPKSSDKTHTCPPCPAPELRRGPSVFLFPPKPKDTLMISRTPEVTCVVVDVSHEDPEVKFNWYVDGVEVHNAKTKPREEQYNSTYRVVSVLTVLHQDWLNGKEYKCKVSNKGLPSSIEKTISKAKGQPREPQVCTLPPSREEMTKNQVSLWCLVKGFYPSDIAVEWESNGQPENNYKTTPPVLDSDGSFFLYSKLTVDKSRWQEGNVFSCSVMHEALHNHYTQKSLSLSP", "sequence (P01857 other isoform, or with tags, fused parts or gaps H435R H435R, chain 2 of 2)": "as the sequence (P01857 other isoform, or with tags, fused parts or gaps H435R H435R, chain 2 of 2) above"}, "[7]": {"molecular_target": "hCXCL10R75A.0049-G1T4k.one//VHn-G1T4h.one.H435R (human) [IgG part: P01857]"}, "[8]": {"molecular_target": "hCXCL10R75A.0041-G1T4k.one//VHn-G1T4h.one.H435R (human) [IgG part: P01857]"}, "[9]": {"molecular_target": "hCXCL10R75A.0018-G1T4k.one//VHn-G1T4h.one.H435R (human) [IgG part: P01857]"}, "[10]": {"molecular_target": "hCXCL10R75A.0033-G1T4k.one//VHn-G1T4h.one.H435R (human) [IgG part: P01857]"}, "[11]": {"molecular_target": "hCXCL10R75A.0019-G1T4k.one//VHn-G1T4h.one.H435R (human) [IgG part: P01857]", "sequence (P01857 other isoform, or with tags, fused parts or gaps H435R H435R, chain 1 of 2)": "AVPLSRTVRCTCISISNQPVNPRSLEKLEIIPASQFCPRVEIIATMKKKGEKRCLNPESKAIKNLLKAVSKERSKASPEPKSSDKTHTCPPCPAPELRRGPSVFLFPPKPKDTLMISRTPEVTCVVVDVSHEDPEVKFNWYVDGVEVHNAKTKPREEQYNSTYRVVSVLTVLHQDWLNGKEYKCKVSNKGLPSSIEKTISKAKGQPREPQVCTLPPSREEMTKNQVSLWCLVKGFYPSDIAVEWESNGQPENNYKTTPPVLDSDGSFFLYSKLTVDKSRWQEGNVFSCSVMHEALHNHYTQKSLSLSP", "sequence (P01857 other isoform, or with tags, fused parts or gaps H435R H435R, chain 2 of 2)": "as the sequence (P01857 other isoform, or with tags, fused parts or gaps H435R H435R, chain 2 of 2) above"}, "[12]": {"molecular_target": "hCXCL10R75A.0044-G1T4k.one//VHn-G1T4h.one.H435R (human) [IgG part: P01857]"}, "[13]": {"molecular_target": "hCXCL10R75A.0004-G1T4k.one//VHn-G1T4h.one.H435R (human) [IgG part: P01857]"}, "[14]": {"molecular_target": "hCXCL10R75A.0010-G1T4k.one//VHn-G1T4h.one.H435R (human) [IgG part: P01857]", "sequence (P01857 other isoform, or with tags, fused parts or gaps H435R H435R, chain 1 of 2)": "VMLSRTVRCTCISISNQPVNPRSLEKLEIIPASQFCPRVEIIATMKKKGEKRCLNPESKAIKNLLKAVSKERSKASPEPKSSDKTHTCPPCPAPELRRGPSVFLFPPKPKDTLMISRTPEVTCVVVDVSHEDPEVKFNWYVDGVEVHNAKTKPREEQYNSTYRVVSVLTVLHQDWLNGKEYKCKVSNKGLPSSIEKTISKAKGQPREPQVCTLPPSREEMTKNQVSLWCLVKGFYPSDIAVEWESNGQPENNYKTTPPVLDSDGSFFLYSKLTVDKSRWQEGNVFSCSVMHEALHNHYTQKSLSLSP", "sequence (P01857 other isoform, or with tags, fused parts or gaps H435R H435R, chain 2 of 2)": "as the sequence (P01857 other isoform, or with tags, fused parts or gaps H435R H435R, chain 2 of 2) above"}, "[15]": {"molecular_target": "hCXCL10R75A.0042-G1T4k.one//VHn-G1T4h.one.H435R (human) [IgG part: P01857]"}, "[16]": {"molecular_target": "hCXCL10R75A.0023-G1T4k.one//VHn-G1T4h.one.H435R (human) [IgG part: P01857]", "sequence (P01857 other isoform, or with tags, fused parts or gaps H435R H435R limits assumed, chain 2 of 2)": "as the sequence (P01857 other isoform, or with tags, fused parts or gaps H435R H435R, chain 2 of 2) above"}, "[17]": {"molecular_target": "hCXCL10R75A.0001-G1T4k.one//VHn-G1T4h.one.H435R (human) [IgG part: P01857]"}, "[18]": {"molecular_target": "hCXCL10R75A.0036-G1T4k.one//VHn-G1T4h.one.H435R (human) [IgG part: P01857]"}, "[19]": {"molecular_target": "hCXCL10R75A.0047-G1T4k.one//VHn-G1T4h.one.H435R (human) [IgG part: P01857]"}, "[20]": {"molecular_target": "hCXCL10R75A.0034-G1T4k.one//VHn-G1T4h.one.H435R (human) [IgG part: P01857]"}, "[21]": {"molecular_target": "hCXCL10R75A.0029-G1T4k.one//VHn-G1T4h.one.H435R (human) [IgG part: P01857]", "sequence (P01857 other isoform, or with tags, fused parts or gaps H435R H435R, chain 1 of 2)": "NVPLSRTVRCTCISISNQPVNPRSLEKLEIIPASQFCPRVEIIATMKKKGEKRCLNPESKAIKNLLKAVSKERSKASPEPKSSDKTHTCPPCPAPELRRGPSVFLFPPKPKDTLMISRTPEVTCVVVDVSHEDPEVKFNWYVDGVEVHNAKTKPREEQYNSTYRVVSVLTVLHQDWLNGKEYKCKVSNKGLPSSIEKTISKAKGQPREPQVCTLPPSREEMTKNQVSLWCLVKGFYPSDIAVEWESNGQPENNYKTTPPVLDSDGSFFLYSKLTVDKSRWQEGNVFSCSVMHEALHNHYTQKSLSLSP", "sequence (P01857 other isoform, or with tags, fused parts or gaps H435R H435R, chain 2 of 2)": "as the sequence (P01857 other isoform, or with tags, fused parts or gaps H435R H435R, chain 2 of 2) above"}, "[22]": {"molecular_target": "hCXCL10R75A.0007-G1T4k.one//VHn-G1T4h.one.H435R (human) [IgG part: P01857]"}, "[23]": {"molecular_target": "hCXCL10R75A.0016-G1T4k.one//VHn-G1T4h.one.H435R (human) [IgG part: P01857]", "sequence (P01857 other isoform, or with tags, fused parts or gaps H435R H435R, chain 1 of 2)": "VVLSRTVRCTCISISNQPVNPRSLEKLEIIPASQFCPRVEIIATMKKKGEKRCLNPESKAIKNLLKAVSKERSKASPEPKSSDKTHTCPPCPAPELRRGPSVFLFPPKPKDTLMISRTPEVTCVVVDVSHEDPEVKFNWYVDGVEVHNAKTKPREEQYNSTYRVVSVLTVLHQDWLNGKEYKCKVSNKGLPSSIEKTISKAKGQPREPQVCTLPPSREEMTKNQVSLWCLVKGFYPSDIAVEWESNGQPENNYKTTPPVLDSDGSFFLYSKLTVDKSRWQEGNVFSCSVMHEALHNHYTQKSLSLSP", "sequence (P01857 other isoform, or with tags, fused parts or gaps H435R H435R, chain 2 of 2)": "as the sequence (P01857 other isoform, or with tags, fused parts or gaps H435R H435R, chain 2 of 2) above"}, "[24]": {"molecular_target": "hCXCL10R75A.0009-G1T4k.one//VHn-G1T4h.one.H435R (human) [IgG part: P01857]"}, "[25]": {"molecular_target": "hCXCL10R75A.0038-G1T4k.one//VHn-G1T4h.one.H435R (human) [IgG part: P01857]"}, "[26]": {"molecular_target": "hCXCL10R75A.0025-G1T4k.one//VHn-G1T4h.one.H435R (human) [IgG part: P01857]"}, "[27]": {"molecular_target": "hCXCL10R75A.0015-G1T4k.one//VHn-G1T4h.one.H435R (human) [IgG part: P01857]", "sequence (P01857 other isoform, or with tags, fused parts or gaps H435R H435R, chain 1 of 2)": "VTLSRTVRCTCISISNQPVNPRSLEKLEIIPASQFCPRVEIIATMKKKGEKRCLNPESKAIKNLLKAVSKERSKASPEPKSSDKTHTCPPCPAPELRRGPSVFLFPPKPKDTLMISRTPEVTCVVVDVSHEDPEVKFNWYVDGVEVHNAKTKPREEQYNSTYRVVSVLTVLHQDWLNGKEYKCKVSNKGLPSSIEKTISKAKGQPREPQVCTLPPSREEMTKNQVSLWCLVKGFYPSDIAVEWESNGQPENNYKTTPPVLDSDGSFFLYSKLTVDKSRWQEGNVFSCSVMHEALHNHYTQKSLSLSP", "sequence (P01857 other isoform, or with tags, fused parts or gaps H435R H435R, chain 2 of 2)": "as the sequence (P01857 other isoform, or with tags, fused parts or gaps H435R H435R, chain 2 of 2) above"}, "[28]": {"molecular_target": "hCXCL10R75A.0031-G1T4k.one//VHn-G1T4h.one.H435R (human) [IgG part: P01857]"}}}
{"substance": "human dipeptidyl peptidase IV (human DPPIV, hDPPIV) (Biolegend, 764102) (from UniProt P27487 29-766) (enzyme)", "values": [{"measurement": "mass change after hDPPIV treatment (LC/MS)", "setting": "[1]", "value": 0, "unit": "Da"}, {"measurement": "mass change after hDPPIV treatment (LC/MS)", "setting": "[2]", "value": 0, "unit": "Da"}, {"measurement": "mass change after hDPPIV treatment (LC/MS)", "setting": "[3]", "value": -2, "unit": "Da"}, {"measurement": "mass change after hDPPIV treatment (LC/MS)", "setting": "[4]", "value": 1, "unit": "Da"}, {"measurement": "mass change after hDPPIV treatment (LC/MS)", "setting": "[5]", "value": -1, "unit": "Da"}, {"measurement": "mass change after hDPPIV treatment (LC/MS)", "setting": "[6]", "value": 195, "unit": "Da"}, {"measurement": "mass change after hDPPIV treatment (LC/MS)", "setting": "[7]", "value": 1, "unit": "Da"}, {"measurement": "mass change after hDPPIV treatment (LC/MS)", "setting": "[8]", "value": 0, "unit": "Da"}, {"measurement": "mass change after hDPPIV treatment (LC/MS)", "setting": "[9]", "value": 0, "unit": "Da"}, {"measurement": "mass change after hDPPIV treatment (LC/MS)", "setting": "[10]", "value": 2, "unit": "Da"}, {"measurement": "mass change after hDPPIV treatment (LC/MS)", "setting": "[11]", "value": 1, "unit": "Da"}, {"measurement": "mass change after hDPPIV treatment (LC/MS)", "setting": "[12]", "value": 0, "unit": "Da"}, {"measurement": "mass change after hDPPIV treatment (LC/MS)", "setting": "[13]", "value": 1, "unit": "Da"}, {"measurement": "mass change after hDPPIV treatment (LC/MS)", "setting": "[14]", "value": -1, "unit": "Da"}, {"measurement": "mass change after hDPPIV treatment (LC/MS)", "setting": "[15]", "value": 1, "unit": "Da"}, {"measurement": "mass change after hDPPIV treatment (LC/MS)", "setting": "[16]", "value": 1, "unit": "Da"}, {"measurement": "mass change after hDPPIV treatment (LC/MS)", "setting": "[17]", "value": 171, "unit": "Da"}, {"measurement": "mass change after hDPPIV treatment (LC/MS)", "setting": "[18]", "value": 0, "unit": "Da"}, {"measurement": "mass change after hDPPIV treatment (LC/MS)", "setting": "[19]", "value": 0, "unit": "Da"}, {"measurement": "mass change after hDPPIV treatment (LC/MS)", "setting": "[20]", "value": 0, "unit": "Da"}, {"measurement": "mass change after hDPPIV treatment (LC/MS)", "setting": "[21]", "value": -1, "unit": "Da"}, {"measurement": "mass change after hDPPIV treatment (LC/MS)", "setting": "[22]", "value": 1, "unit": "Da"}, {"measurement": "mass change after hDPPIV treatment (LC/MS)", "setting": "[23]", "value": 1, "unit": "Da"}, {"measurement": "mass change after hDPPIV treatment (LC/MS)", "setting": "[24]", "value": 1, "unit": "Da"}, {"measurement": "mass change after hDPPIV treatment (LC/MS)", "setting": "[25]", "value": 0, "unit": "Da"}, {"measurement": "mass change after hDPPIV treatment (LC/MS)", "setting": "[26]", "value": 0, "unit": "Da"}, {"measurement": "mass change after hDPPIV treatment (LC/MS)", "setting": "[27]", "value": 0, "unit": "Da"}, {"measurement": "mass change after hDPPIV treatment (LC/MS)", "setting": "[28]", "value": 0, "unit": "Da"}]}
